Measurements taken from article PMC1635298.
Like-named read-outs stand apart in the source and are kept apart here.

What was measured:
Assay in all cases: EMSA
[1] = target: T1, Slx5-Slx8 complex, Slx8 subunit;Slx5 (Saccharomyces cerevisiae;Saccharomyces …, UniProt P40072;P32828 1-274;1-619, |)
T1 sequence 1: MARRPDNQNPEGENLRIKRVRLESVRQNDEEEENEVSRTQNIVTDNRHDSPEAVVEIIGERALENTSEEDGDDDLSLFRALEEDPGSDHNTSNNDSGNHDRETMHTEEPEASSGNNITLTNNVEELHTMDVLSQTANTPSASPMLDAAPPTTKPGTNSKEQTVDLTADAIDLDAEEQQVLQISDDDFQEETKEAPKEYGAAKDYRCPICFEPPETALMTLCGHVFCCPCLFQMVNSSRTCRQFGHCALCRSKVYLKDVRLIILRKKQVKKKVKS
T1 sequence 2: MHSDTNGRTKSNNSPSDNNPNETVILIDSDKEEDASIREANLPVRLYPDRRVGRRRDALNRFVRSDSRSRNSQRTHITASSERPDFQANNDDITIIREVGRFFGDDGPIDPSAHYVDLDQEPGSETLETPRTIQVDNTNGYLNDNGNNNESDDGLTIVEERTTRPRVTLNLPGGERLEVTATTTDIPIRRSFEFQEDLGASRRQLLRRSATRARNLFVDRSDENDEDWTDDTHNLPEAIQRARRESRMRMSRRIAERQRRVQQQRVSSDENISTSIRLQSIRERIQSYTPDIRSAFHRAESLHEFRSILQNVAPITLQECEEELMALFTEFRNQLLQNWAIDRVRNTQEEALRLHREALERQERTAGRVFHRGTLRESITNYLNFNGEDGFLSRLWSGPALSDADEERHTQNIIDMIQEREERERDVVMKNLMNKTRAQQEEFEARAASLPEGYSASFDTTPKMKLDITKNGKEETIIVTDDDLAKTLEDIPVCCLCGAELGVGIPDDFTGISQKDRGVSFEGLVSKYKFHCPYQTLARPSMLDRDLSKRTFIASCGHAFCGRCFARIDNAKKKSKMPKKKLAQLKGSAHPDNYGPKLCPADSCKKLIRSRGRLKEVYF

[2] = target: T1, Slx5-Slx8 complex, Slx8 subunit;Slx5; remark: listed apart in the source
[3] = target: T1, Slx5-Slx8 complex, Slx8 subunit;Slx5; remark: listed apart in the source
[4] = target: T1, Slx5-Slx8 complex, Slx8 subunit;Slx5; remark: listed apart in the source
Slx8 = target: T2, Slx8 (Saccharomyces cerevisiae, UniProt P40072 1-274)
T2 sequence: T1 sequence 1

[5] = target: T1, Slx5-Slx8 complex, Slx8 subunit;Slx5; remark: listed apart in the source
Slx5 = target: T3, Slx5 (Saccharomyces cerevisiae, UniProt P32828 1-619)
T3 sequence: T1 sequence 2

Binder: GACGCTGCCGAATTCTGGCGTTAGGAGATACCGATAAGCTTCGGCTTAA (ssDNA) [49 nt ssDNA (888)]
- binding result [1]: no binding

B1: 15 bp dsDNA (1312/1320) (dsDNA)
DNA 1: TATCTCCTAACGCCA
DNA 2: TGGCGTTAGGAGATA
- binding result [2]: no binding

B2: 90 bp dsDNA (1317/1319) (dsDNA)
DNA 1: GATCCGAATTCTGGCTTGCTAGGACATCTTTGCCCACGTTGACCCGGGTTGGCGTTAGGAGATAGTCAGTTATAGCTGCGGCTGCTAAGG
DNA 2: GATCCCTTAGCAGCCGCAGCTATAACTGACTATCTCCTAACGCCAACCCGGGTCAACGTGGGCAAAGATGTCCTAGCAAGCCAGAATTCG
- binding result [3]: binds

B3: 30 bp dsDNA (1313/1314) (dsDNA)
DNA 1: TGGCGTTAGGAGATACCGATAAGCTTCGGC
DNA 2: GCCGAAGCTTATCGGTATCTCCTAACGCCA
- binding result [4]: binds

B4: 45 bp dsDNA (1315/1316) (dsDNA)
DNA 1: GGGTCAACGTGGGCAAAGATGTCCTAGCAAGCCAGAATTCGGCAG
DNA 2: CTGCCGAATTCTGGCTTGCTAGGACATCTTTGCCCACGTTGACCC
- apparent K (half saturation) (Slx8): ~8 pmol (in reaction; standard volume 20 uL)
- apparent K (half saturation) [5]: < 0.5 pmol (in reaction; standard volume 20 uL)
- binding result (Slx5): no binding
